Data from patent US20120269817A1 (Bayer, published 2012).
Substitutions are numbered along the chain they refer to.

T1: human tissue factor pathway inhibitor (TFPI) (human, UniProt P10646 29-304, limits assumed)
T1 sequence (looked up): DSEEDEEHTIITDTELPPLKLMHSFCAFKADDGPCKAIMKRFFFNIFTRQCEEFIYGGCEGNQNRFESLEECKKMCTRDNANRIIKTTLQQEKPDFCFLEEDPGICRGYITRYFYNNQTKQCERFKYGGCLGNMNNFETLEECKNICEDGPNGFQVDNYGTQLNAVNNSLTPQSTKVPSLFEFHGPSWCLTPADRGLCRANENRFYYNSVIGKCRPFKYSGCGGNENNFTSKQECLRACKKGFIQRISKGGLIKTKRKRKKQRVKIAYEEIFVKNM

T2: human TFPI K1 (human, UniProt P10646 29-107, limits assumed)
T2 construct: domain: K1; also called Kunitz domain 1
T2 sequence (looked up): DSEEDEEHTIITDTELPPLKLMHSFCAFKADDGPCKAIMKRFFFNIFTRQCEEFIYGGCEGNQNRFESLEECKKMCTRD

T3: mouse tissue factor pathway inhibitor (TFPI) (mouse, UniProt O54819 29-289, limits assumed)
T3 construct: Bought protein; also called mouse TFPI; mTFPI
T3 sequence (looked up): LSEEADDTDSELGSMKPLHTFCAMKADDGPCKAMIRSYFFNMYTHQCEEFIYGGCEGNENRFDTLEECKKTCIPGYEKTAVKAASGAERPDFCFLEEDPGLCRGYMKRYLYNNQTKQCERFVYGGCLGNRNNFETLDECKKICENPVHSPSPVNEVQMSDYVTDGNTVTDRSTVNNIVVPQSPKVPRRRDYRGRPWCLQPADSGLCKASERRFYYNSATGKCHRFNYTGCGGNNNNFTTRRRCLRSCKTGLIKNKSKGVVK

B1: TP-2G7 Fab (Fab, V domains shown)
VH: QVQLVESGGGLVQPGGSLRLSCAASGFTFNSYAMSWVRQAPGKGLEWVSNISSNSSNTYYADSVKGRFTISRDNSKNTLYLQMNSLRAEDTAVYYCARKGGGEHGFFPSDIWGQGTLVTVSS
VL: DIELTQPPSVSVAPGQTARISCSGDNLGTYYVHWYQQKPGQAPVLVIYGDNNRPSGIPERFSGSNSGNTATLTISGTQAEDEADYYCQTYDSNNESIVFGGGTKLTVLG
notes: Human Fab from HuCal Gold, expressed in E. coli TG1
B2: TP-4G8 Fab (Fab, V domains shown)
VH: QVQLVESGGGLVQPGGSLRLSCAASGFTFSTYAMHWVRQAPGKGLEWVSTISGYGSFTYYADSVKGRFTISRDNSKNTLYLQMNSLRAEDTAVYYCARNGRKYGQMDNWGQGTLVTVSS
VL: DIELTQPPSVSVAPGQTARISCSGDKLGSKSVHWYQQKPGQAPVLVIYRDTDRPSGIPERFSGSNSGNTATLTISGTQAEDEADYYCQTYDYILNVFGGGTKLTVLG
notes: as for B1
B3: TP-4E8 Fab (Fab, V domains shown)
VH: QVQLVESGGGLVQPGGSLRLSCAASGFTFNDYAMSWVRQAPGKGLEWVSLIESVSSSTYYADSVKGRFTISRDNSKNTLYLQMNSLRAEDTAVYYCARTIGVLWDDVWGQGTLVTVSS
VL: DIELTQPPSVSVAPGQTARISCSGDALGSKYVSWYQQKPGQAPVLVIYGDNKRPSGIPERFSGSNSGNTATLTISGTQAEDEADYYCQSYTYSLNQVFGGGTKLTVLG
notes: as for B1
B4: TP-4H8 Fab (Fab, V domains shown)
VH: QVQLVESGGGLVQPGGSLRLSCAASGFTFSDHAMHWVRQAPGKGLEWVSVIEYSGSKTNYADSVKGRFTISRDNSKNTLYLQMNSLRAEDTAVYYCARGDYYPYLVFAIWGQGTLVTVSS
VL: DIELTQPPSVSVAPGQTARISCSGDSIGKKYVHWYQQKPGQAPVLVIYGDNNRPSGIPERFSGSNSGNTATLTISGTQAEDEADYYCSTADSVITYKNVFGGGTKLTVLG
notes: as for B1
B5: TP-2C1 Fab (Fab, V domains shown)
VH: QVQLVESGGGLVQPGGSLRLSCAASGFTFSPYVMSWVRQAPGKGLEWVSSISSSSSNTYYADSVKGRFTISRDNSKNTLYLQMNSLRAEDTAVYYCARGDSYMYDVWGQGTLVTVSS
VL: DIELTQPPSVSVAPGQTARISCSGDSIGSYYAHWYQQKPGQAPVLVIYYDSKRPSGIPERFSGSNSGNTATLTISGTQAEDEADYYCQAYTGQSISRVFGGGTKLTVLG
notes: as for B1
B6: 2G6-IgG (antibody, V domains shown)
VH: QVQLQQSGPGLVKPSQTLSLTCAISGDSVSSSSAAWSWIRQSPGRGLEWLGIIYYRSKWYNDYAVSVKSRITINPDTSKNQFSLQLNSVTPEDTAVYYCARHSMVGFDVWGQGTLVTVSS
VL: DIVLTQSPATLSLSPGERATLSCRASQYVTSSYLAWYQQKPGQAPRLLIYGSSRATGVPARFSGSGSGTDFTLTISSLEPEDFATYYCQQYSSSPITFGQGTKVEIKR
notes: Chimeric IgG: human variable regions on mouse constant regions, murine IgG1 isotype, made in HKB11 cells; also called IgG-2G6; TP-2G6 chimeric IgG
B7: TP-2B3 chimeric IgG (antibody, V domains shown)
VH: QVQLQQSGPGLVKPSQTLSLTCAISGDSVSSNSAAWGWIRQSPGRGLEWLGMIYYRSKWYNSYAVSVKSRITINPDTSKNQFSLQLNSVTPEDTAVYYCARTMSKYGGPGMDVWGQGTLVTVSS
VL: DIVLTQSPATLSLSPGERATLSCRASQNIGSNYLAWYQQKPGQAPRLLIYGASTRATGVPARFNGSGSGTDFTLTISSLEPEDFAVYYCQQLNSIPVTFGQGTKVEIKR
notes: Chimeric IgG: human variable regions on mouse constant regions, murine IgG1 isotype, made in HKB11 cells
B8: TP-3C2 chimeric IgG (antibody, V domains shown)
VH: B6 VH with I52M, D62H, H102G, S103G, M104S, V105G, G106V, F107M
VL: DIQMTQSPSSLSASVGDRVTITCRASQSITNYLNWYQQKPGKAPKLLIYDVSNLQSGVPSRFSGSGSGTDFTLTISSLQPEDFAVYYCQQYSGYPLTFGQGTKVEIKR
notes: as for B7
B9: TP-3G1 chimeric IgG (antibody, V domains shown)
VH: QVQLQQSGPGLVKPSQTLSLTCAISGDSVSSNSGGWGWIRQSPGRGLEWLGLIYYRSKWYNAYAVSVKSRITINPDTSKNQFSLQLNSVTPEDTAVYYCARYLGSNFYVYSDVWGQGTLVTVSS
VL: DIQMTQSPSSLSASVGDRVTITCRASQGISSYLHWYQQKPGKAPKLLIYGASTLQSGVPSRFSGSGSGTDFTLTISSLQPEDFATYYCQQQNGYPFTFGQGTKVEIKR
notes: as for B7
B10: TP-4B7 chimeric IgG (antibody, V domains shown)
VH: QVQLQQSGPGLVKPSQTLSLTCAISGDSVSSNSAAWSWIRQSPGRGLEWLGIIYKRSKWYNDYAVSVKSRITINPDTSKNQFSLQLNSVTPEDTAVYYCARWHSDKHWGFDYWGQGTLVTVSS
VL: DIVMTQSPLSLPVTPGEPASISCRSSQSLVFSDGNTYLNWYLQKPGQSPQLLIYKGSNRASGVPDRFSGSGSGTDFTLKISRVEAEDVGVYYCQQYDSYPLTFGQGTKVEIKR
notes: as for B7

molecular target: T1, human tissue factor pathway inhibitor …; assay: cell-based or functional assay

Question: How did the “% inhibition of hTFPI activity” value turn out when B1 was run?
Answer: Its value is 55%.

Question: And the “dPT in hemoA plasma” value?
Answer: The value was 72.2 s.

Question: With B2 as the binder, how does the “% inhibition of hTFPI activity” value read?
Answer: The value was 39%.

Question: What about the “dPT in hemoA plasma” value of the same binder?
Answer: The value was 73.9 s.

Question: How did the “% inhibition of hTFPI activity” value turn out when B3 was run?
Answer: Its value is 29%.

Question: What about the “dPT in hemoA plasma” value of the same binder?
Answer: The value was 71.9 s.

Question: B4 was tested. Which “% inhibition of hTFPI activity” value did it give?
Answer: The value was 28%.

Question: And the “dPT in hemoA plasma” value?
Answer: The value was 76.5 s.

Question: Which results are given for B5?
Answer: % inhibition of hTFPI activity: 21%; dPT in hemoA plasma: 70.9 s

molecular target: T2, human TFPI K1; assay: Western blots and ELISA
Experimental: Western blots and ELISA were used to determine which domain(s) of TFPI of the inhibitory antibodies bind. Recombinant full length human TFPI or TFPI domains were used for these studies. ELISA was similar to Example 3. In the Western Blot, human TFPI or domains were run on 4-12% Bis-Tris SDS PAGE running buffer MES (Invitrogen, Carlsbad, Calif.) and then transferred to cellulose membrane. After incubation with inhibitory antibodies for 10 min, the membrane was washed three times using SNAPid system (Millipore, Billerica, Mass.). A HRP conjugated donkey anti-mouse antibody (Pierce, Rockford, Ill.) at 1 to 10,000 dilution was incubated with the membrane for 10 min. After a similar wash step, the membrane was developed using SuperSignal substrate (Pierce, Rockford, Ill.). Whereas the control anti-Kunitz domain 1 antibody binds to full length TFPI, truncated TFPI and domains, inhibitory anti-TFPI antibodies only bind to TFPI containing Kunitz domain 2.

Question: Does B6 bind?
Answer: Result: no binding

Question: Does B7 bind?
Answer: Result: no binding

Question: Does B8 bind?
Answer: Result: no binding

Question: Does B9 bind?
Answer: Result: no binding

Question: Does B10 bind?
Answer: Result: no binding

molecular target: T3, mouse tissue factor pathway inhibitor …; assay: ELISA, Fab on coated mouse TFPI
Experimental: To select antibody clones that bind to human TFPI, Fab genes of the phage clones from the second and third round of panning were subcloned into a bacterial expression vector and expressed in E. coli strain TG1. The bacterial lysate was added to the wells of the human TFPI-coated Maxisorp plates. After washing, HRP-conjugated goat anti-human Fab was used as a detection antibody and the plates were developed by adding AmplexRed (Invitrogen) with hydrogen peroxide. A signal of at least five-fold higher than the background was considered as positive. The cross reactivity of the anti-human TFPI antibodies to mouse TFPI was determined by a similar mouse TFPI-binding ELISA. The plates were coated with mouse TFPI (R&D System), BSA and lysozyme. The later two antigens were used as negative controls.

Question: Does B1 bind?
Answer: Result: no binding

Question: Does B2 bind?
Answer: Result: no binding

Question: Does B3 bind?
Answer: Result: no binding

Question: Does B4 bind?
Answer: Result: no binding

Question: Does B5 bind?
Answer: Result: no binding

molecular target: T1, human tissue factor pathway inhibitor …; assay: ELISA, Fab on coated TFPI
Outline: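 Purified Fabs titrated on human or mouse TFPI-coated plates; bound Fab detected with HRP anti-human Fab and AmplexRed/H2O2 to derive EC50. Affinity and kinetics by Biacore: TFPI amine-coupled on CM5 (~300 RU), Fabs in mobile phase at 0.1, 0.4, 1.6, 6.4 and 25 nM.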

Question: Which EC50 does the source give for B1 here?
Answer: The EC50 was 23.5 nM.

Question: How did the EC50 turn out when B2 was run?
Answer: The EC50 was 847 nM.

Question: For B3, which EC50 is on record?
Answer: Its EC50 is 36.9 nM.

Question: Which EC50 does the source give for B4 here?
Answer: Its EC50 is 72.5 nM.

Question: Which EC50 does the source give for B5 here?
Answer: The EC50 was 0.4 nM.

molecular target: T3, mouse tissue factor pathway inhibitor …; assay: ELISA, IgG against Fab

Question: With B6 as the binder, how does the “fold change of EC50 against 2G6-Fab” value read?
Answer: The value was 10 fold.

molecular target: T1, human tissue factor pathway inhibitor …; assay: ELISA, IgG against Fab

Question: With B6 as the binder, how does the “fold change of EC50 against 2G6-Fab” value read?
Answer: Its value is 2 fold.

molecular target: T1, human tissue factor pathway inhibitor …; assay: Biacore, TFPI on CM5 chip, Fab in mobile phase
Outline: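 Surface plasmon resonance with human or mouse TFPI amine-coupled to a CM5 chip at approximately 300 RU. Purified Fabs were injected in mobile phase at 0.1, 0.4, 1.6, 6.4 and 25 nM. Kinetics and binding affinity were derived from the sensorgrams.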

Question: How did the Kd turn out when B1 was run?
Answer: Its Kd is 26.9 nM.

Question: Which Kd does the source give for B2 here?
Answer: The Kd was 25.2 nM.

Question: B3 was tested. Which Kd did it give?
Answer: Its Kd is 35.9 nM.

Question: With B4 as the binder, how does the Kd read?
Answer: The Kd was 32.2 nM.

Question: With B5 as the binder, how does the Kd read?
Answer: Its Kd is 2.64 nM.

molecular target: T1, human tissue factor pathway inhibitor …; assay: ELISA, IgG on coated human TFPI

Question: For B6, which EC50 is on record?
Answer: Its EC50 is 0.22 nM.

molecular target: T4, BSA (bovine, UniProt P02769 25-607); assay: ELISA
T4 construct: also called bovine serum albumin
T4 sequence (P02769 25-607 limits assumed): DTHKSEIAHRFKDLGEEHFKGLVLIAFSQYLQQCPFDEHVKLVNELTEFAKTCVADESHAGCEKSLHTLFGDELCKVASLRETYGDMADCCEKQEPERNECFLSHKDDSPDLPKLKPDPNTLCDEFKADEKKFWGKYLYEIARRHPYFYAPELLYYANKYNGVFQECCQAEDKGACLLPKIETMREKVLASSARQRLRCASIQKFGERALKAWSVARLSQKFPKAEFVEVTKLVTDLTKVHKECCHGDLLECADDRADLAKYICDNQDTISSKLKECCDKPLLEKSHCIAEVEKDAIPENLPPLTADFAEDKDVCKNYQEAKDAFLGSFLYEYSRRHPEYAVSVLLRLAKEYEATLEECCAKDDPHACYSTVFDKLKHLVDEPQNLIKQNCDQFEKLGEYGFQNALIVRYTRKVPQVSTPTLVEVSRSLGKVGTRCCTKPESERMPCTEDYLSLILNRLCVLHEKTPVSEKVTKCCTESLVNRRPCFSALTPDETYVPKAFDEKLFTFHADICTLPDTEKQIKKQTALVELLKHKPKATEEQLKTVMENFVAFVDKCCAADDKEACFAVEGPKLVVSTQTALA
Outline: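 Fab from E. coli TG1 lysates bound to plates coated with human TFPI, or with mouse TFPI for cross-reactivity, with BSA and lysozyme as negative controls. Detection by HRP-anti-human Fab with AmplexRed/H2O2; signal ≥5-fold over background scored positive.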

Question: Does B1 bind?
Answer: Result: no binding

Question: Does B2 bind?
Answer: Result: no binding

Question: Does B3 bind?
Answer: Result: no binding

Question: Does B4 bind?
Answer: Result: no binding

Question: Does B5 bind?
Answer: Result: no binding

molecular target: T3, mouse tissue factor pathway inhibitor …; assay: ELISA, IgG on coated mouse TFPI

Question: For B6, which EC50 is on record?
Answer: Its EC50 is 0.51 nM.
